PMC5665649 (eLife, 2017)
Like-named read-outs stand apart in the source and are kept apart here.

Key:
[1] = target: GluA2 amino terminal domain (ATD), DyLight 488-labeled; test: AUC; direct Lamm equation fits, done here, of previously reported SV data for GluA2 (Zhao et al., 2013d) and GluA3 (Zhao et al., 2012); homodimer
[2] = target: GluA2 amino terminal domain (ATD), DyLight 488-labeled; test: AUC; homodimer KD of GluA2 as given in Table 2 under UL GluA2 and DL-GluA2; the experiment itself is not described in this paper
[3] = target: EGFP-GluA1 amino terminal domain fusion protein (UniProt P19490); test: AUC; FDS-SV titration for hetero-dimerization: constant low concentration (50 pM-1 nM) of the ATD carrying the fluorophore, unlabeled partner from 0.2 nM up to µM; sw isotherm fit with coupled competitive homo- and hetero-dimerization model, homodimer KD fixed; 20 °C, 50,000 rpm, 0.1 mg/mL BSA
[4] = target: GluK1 amino terminal domain (ATD) G213N/M215T, DyLight 488-labeled; test: AUC; fluorescence-detected sedimentation velocity (FDS-SV), tracer titration for self-association: 0.2-1 nM DyLight 488-labeled ATD with a series of the same unlabeled ATD; sw isotherm fit with monomer-dimer model (dimer to monomers); 20 °C, 50,000 rpm, 0.1 mg/mL BSA
[5] = target: GluK2 ATD (Rattus norvegicus) (UniProt P42260); details: cited from earlier work
[6] = target: GluK1 amino terminal domain (ATD) G213N/M215T, DyLight 488-labeled; test: AUC; FDS-SV titration for hetero-dimerization: constant low concentration (50 pM-1 nM) of the ATD carrying the fluorophore, unlabeled partner from 0.2 nM up to µM; sw isotherm fit with coupled competitive homo- and hetero-dimerization model, homodimer KD fixed; 20 °C, 50,000 rpm, 0.1 mg/mL BSA
[7] = target: GluK2 amino terminal domain (ATD) G215N/M217T, DyLight 488-labeled (UniProt P42260); test: as above
[8] = target: GluK4 amino terminal domain (ATD), unlabeled (UniProt Q01812); test: AUC; sedimentation velocity with absorbance detection at 280 nm, unlabeled GluK4 0.3-29 µM; 20 °C, 50,000 rpm
[9] = target: GluK5 ATD (Rattus norvegicus) (UniProt Q63273); details: cited from earlier work
[10] = target: GluA3 amino terminal domain (ATD), unlabeled; test: AUC; direct Lamm equation fits, done here, of previously reported SV data for GluA2 (Zhao et al., 2013d) and GluA3 (Zhao et al., 2012); homodimer
[11] = target: GluA2 amino terminal domain (ATD), DyLight 488-labeled; test: AUC; FDS-SV titration for hetero-dimerization: constant low concentration (50 pM-1 nM) of the ATD carrying the fluorophore, unlabeled partner from 0.2 nM up to µM; sw isotherm fit with coupled competitive homo- and hetero-dimerization model, homodimer KD fixed; 20 °C, 50,000 rpm, 0.1 mg/mL BSA
[12] = target: EGFP-GluA4 amino terminal domain fusion protein (UniProt P19493); test: as above
EGFP-GluA4 amino terminal domain fusion protein, sequence (P19493 21-413): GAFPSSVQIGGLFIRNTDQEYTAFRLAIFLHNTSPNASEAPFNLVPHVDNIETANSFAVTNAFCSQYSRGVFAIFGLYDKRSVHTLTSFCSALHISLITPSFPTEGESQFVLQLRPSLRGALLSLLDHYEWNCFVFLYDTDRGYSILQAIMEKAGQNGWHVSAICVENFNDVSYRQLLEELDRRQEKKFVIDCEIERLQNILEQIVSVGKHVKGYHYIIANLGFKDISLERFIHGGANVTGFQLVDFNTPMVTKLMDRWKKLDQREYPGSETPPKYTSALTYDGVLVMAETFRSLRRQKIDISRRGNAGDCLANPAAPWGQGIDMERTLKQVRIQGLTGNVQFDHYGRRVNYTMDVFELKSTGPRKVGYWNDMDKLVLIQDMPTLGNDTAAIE

[13] = target: the molecule itself; test: AUC; FDS-SV, dilution series of the fluorescent protein alone (DyLight 488-GluK3 50 pM-1.2 µM; EGFP-GluA1 100 pM-1.2 µM; EGFP-GluA4 500 pM-1.2 µM); c(s) and sw isotherm, monomer-dimer model (dimer to monomers); 20 °C, 50,000 rpm, 0.1 mg/mL BSA
[14] = target: the molecule itself; test: as above; remark: listed apart in the source
[15] = target: the molecule itself; test: as above; remark: listed apart in the source
[16] = target: T1, GluK2 amino terminal domain (ATD) G215N/M217T, DyLight 488-labeled (UniProt P42260 32-420, G215N | M217T, DyLight 488 (NHS ester-activated), labeling ratios typically 0.9-1.3, sites not stated); test: AUC; fluorescence-detected sedimentation velocity (FDS-SV), tracer titration for self-association: 0.2-1 nM DyLight 488-labeled ATD with a series of the same unlabeled ATD; sw isotherm fit with monomer-dimer model (dimer to monomers); 20 °C, 50,000 rpm, 0.1 mg/mL BSA; details: both partners purified
T1 construct: signal peptide in the construct; GluK2 kainate receptor ATD cDNA with native signal peptide, last residue Lys389; N-linked glycosylation site inserted in the lateral face; Same construct as m3, chemically labeled; also called DL-GluK2; DyLight 488-labeled GluK2; source: HEK cell suspension cultures, transient transfection (PEI), secreted into medium; purified (Ni2+ HiTrap chelating, thrombin …)
T1 sequence (looked up): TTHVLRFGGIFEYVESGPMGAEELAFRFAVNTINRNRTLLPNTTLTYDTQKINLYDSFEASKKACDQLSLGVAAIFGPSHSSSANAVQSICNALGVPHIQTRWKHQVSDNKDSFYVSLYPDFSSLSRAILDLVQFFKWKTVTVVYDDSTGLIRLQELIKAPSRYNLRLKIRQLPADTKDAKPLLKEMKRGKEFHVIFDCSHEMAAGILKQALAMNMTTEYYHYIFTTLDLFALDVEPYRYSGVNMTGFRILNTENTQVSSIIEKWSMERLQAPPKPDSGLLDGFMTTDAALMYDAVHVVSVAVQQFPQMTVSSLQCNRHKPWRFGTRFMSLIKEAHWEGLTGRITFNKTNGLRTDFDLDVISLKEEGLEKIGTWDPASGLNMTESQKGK

[17] = target: T2, GluK5 amino terminal domain (ATD), DyLight 488-labeled; test: AUC; FDS-SV titration for hetero-dimerization: constant low concentration (50 pM-1 nM) of the ATD carrying the fluorophore, unlabeled partner from 0.2 nM up to µM; sw isotherm fit with coupled competitive homo- and hetero-dimerization model, homodimer KD fixed; 20 °C, 50,000 rpm, 0.1 mg/mL BSA
T2 sequence (Q63273 whole entry, species assumed, looked up): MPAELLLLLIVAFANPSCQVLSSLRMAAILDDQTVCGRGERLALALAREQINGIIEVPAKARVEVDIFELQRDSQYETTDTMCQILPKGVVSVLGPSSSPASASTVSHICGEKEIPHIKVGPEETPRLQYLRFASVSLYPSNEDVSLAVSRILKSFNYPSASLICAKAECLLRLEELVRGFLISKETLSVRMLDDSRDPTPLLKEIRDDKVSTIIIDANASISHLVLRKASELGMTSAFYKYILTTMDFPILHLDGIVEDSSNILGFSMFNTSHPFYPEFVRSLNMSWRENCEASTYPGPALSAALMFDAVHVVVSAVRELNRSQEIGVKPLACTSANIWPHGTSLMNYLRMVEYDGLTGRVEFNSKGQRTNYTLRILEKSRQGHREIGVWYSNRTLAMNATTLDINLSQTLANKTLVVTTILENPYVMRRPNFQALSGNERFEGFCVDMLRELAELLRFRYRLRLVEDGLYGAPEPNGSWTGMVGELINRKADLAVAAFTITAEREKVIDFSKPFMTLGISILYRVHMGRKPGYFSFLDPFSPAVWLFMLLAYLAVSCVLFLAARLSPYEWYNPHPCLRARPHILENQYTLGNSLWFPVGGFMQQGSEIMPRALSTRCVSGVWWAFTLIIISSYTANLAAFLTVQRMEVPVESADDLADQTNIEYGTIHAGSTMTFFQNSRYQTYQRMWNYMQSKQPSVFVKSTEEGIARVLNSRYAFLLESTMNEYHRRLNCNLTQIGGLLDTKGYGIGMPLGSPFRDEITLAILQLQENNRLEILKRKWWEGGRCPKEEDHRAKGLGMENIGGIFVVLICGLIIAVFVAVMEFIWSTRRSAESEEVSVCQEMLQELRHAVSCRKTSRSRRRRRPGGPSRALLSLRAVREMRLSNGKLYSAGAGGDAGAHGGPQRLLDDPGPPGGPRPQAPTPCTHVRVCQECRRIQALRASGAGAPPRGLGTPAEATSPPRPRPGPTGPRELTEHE

## GluA2 amino terminal domain (ATD), unlabeled (domain or fragment)
[1]
  koff: > 0.003 s⁻¹
  kon: > 140000 M⁻¹ s⁻¹
[2]
  Kd: 0.0211 µM
[3]
  Kd: 0.0029 µM

## GluK1 amino terminal domain (ATD) G213N/M215T, unlabeled (domain or fragment)
[4]
  Kd: 1.2 µM

## GluK2 ATD (from UniProt P42260)
[5]
  Kd: 0.25 µM

## GluK4 amino terminal domain (ATD), unlabeled (from UniProt Q01812 21-399) (domain or fragment)
[6]
  Kd: 0.146 µM
[7]
  Kd: 0.057 µM
[8]
  Kd: > 1000 µM

## GluK5 ATD (from UniProt Q63273)
[9]
  Kd: 350 µM

## GluA3 amino terminal domain (ATD), unlabeled (domain or fragment)
[10]
  koff: > 0.003 s⁻¹
[3]
  Kd: 0.0083 µM
[11]
  Kd: 0.0013 µM
[12]
  Kd: 0.091 µM

## GluK5 amino terminal domain (ATD), unlabeled (domain or fragment)
[6]
  Kd: 0.018 µM
[7]
  Kd: 0.012 µM

B1: EGFP-GluA1 amino terminal domain fusion protein (domain or fragment, UniProt P19490 19-21, looked up)
chain: VGANFPNNIQIGGLFPNQQSQEHAAFRFALSQLTEPPKLLPQIDIVNISDSFEMTYRFCSQFSKGVYAIFGFYERRTVNMLTSFCGALHVCFITPSFPVDTSNQFVLQLRPELQEALISIIDHYKWQTFVYIYDADRGLSVLQRVLDTAAEKNWQVTAVNILTTTEEGYRMLFQDLEKKKERLVVVDCESERLNAILGQIVKLEKNGIGYHYILANLGFMDIDLNKFKESGANVTGFQLVNYTDTIPARIMQQWRTSDSRDHTRVDWKRPKYTSALTYDGVKVMAEAFQSLRRQRIDISRRGNAGDCLANPAVPWGQGIDIQRALQQVRFEGLTGNVQFNEKGRRTNYTLHVIEMKHDGIRKIGYWNEDDKFVPAATDAQAGGDNSSVQ
notes: signal peptide in the construct; GluA1 signal peptide and ATD, residues Met1-Phe21, before SGSG-EGFP; GluA1 AMPA receptor ATD, residues Val17-Gln405, after EGFP-SGSG; The two printed ranges overlap (17-21); also called GluA1 ATD-EGFP; GluA1-EGFP fusion protein; source: Sf9 insect cells, baculovirus (pFastBac1), secreted into medium; purified (Ni2+ HiTrap chelating, thrombin digestion, ion …)
[13]
  Kd: 0.0284 µM

B2: GluK3 amino terminal domain (ATD) T221N/Y223S, DyLight 488-labeled (domain or fragment, UniProt P42264 32-423, looked up)
chain: MPHVIRIGGIFEYADGPNAQVMNAEEHAFRFSANIINRNRTLLPNTTLTYDIQRIHFHDSFEATKKACDQLALGVVAIFGPSQGSCTNAVQSICNALEVPHIQLRWKHHPLDNKDTFYVNLYPDYASLSHAILDLVQSLKWRSATVVYDDSTGLIRLQELIMAPSRYNIRLKIRQLPIDSDDSRPLLKEMKRGREFRIIFDCSHTMAAQILKQAMAMGMMNESYHFIFTTLDLYALDLEPYRYSGVNLTGFRILNVDNAHVSAIVEKWSMERLQAAPRAESGLLDGVMMTDAALLYDAVHIVSVCYQRASQMTVNSLQCHRHKPWRFGGRFMNFIKEAQWEGLTGRIVFNKTSGLRTDFDLDIISLKEDGLEKVGVWSPADGLNITEVAKGR
modifications: DyLight 488 (NHS ester-activated), labeling ratios typically 0.9-1.3, sites not stated
notes: signal peptide in the construct; GluK3 kainate receptor ATD cDNA with native signal peptide, last residue Arg392; N-linked glycosylation site inserted in the lateral face; also called DL-GluK3; DL GluK3; source: HEK cell suspension cultures, transient transfection (PEI), secreted into medium; purified (Ni2+ HiTrap chelating, thrombin digestion, ion exchange); labeled, Superdex 75
[14]
  Kd: < 0.05 nM
[15]
  stoichiometry N: 2

B3: GluK2 amino terminal domain (ATD) G215N/M217T, unlabeled (domain or fragment, UniProt P42260 32-420, looked up)
chain: TTHVLRFGGIFEYVESGPMGAEELAFRFAVNTINRNRTLLPNTTLTYDTQKINLYDSFEASKKACDQLSLGVAAIFGPSHSSSANAVQSICNALGVPHIQTRWKHQVSDNKDSFYVSLYPDFSSLSRAILDLVQFFKWKTVTVVYDDSTGLIRLQELIKAPSRYNLRLKIRQLPADTKDAKPLLKEMKRGKEFHVIFDCSHEMAAGILKQALAMNMTTEYYHYIFTTLDLFALDVEPYRYSGVNMTGFRILNTENTQVSSIIEKWSMERLQAPPKPDSGLLDGFMTTDAALMYDAVHVVSVAVQQFPQMTVSSLQCNRHKPWRFGTRFMSLIKEAHWEGLTGRITFNKTNGLRTDFDLDVISLKEEGLEKIGTWDPASGLNMTESQKGK
notes: signal peptide in the construct; GluK2 kainate receptor ATD cDNA with native signal peptide, last residue Lys389; N-linked glycosylation site inserted in the lateral face; also called UL GluK2; GluK2 ATD; source: HEK cell suspension cultures, transient transfection (PEI), secreted into medium; purified (Ni2+ HiTrap chelating, thrombin digestion, ion exchange)
[16]
  Kd: 0.163 µM
[6]
  Kd: 1.8 µM
[17]
  Kd: 0.0094 µM
